Starred links: 1 amine or outer side, 2 acyl side, 3 side chain; linkers in the order of their positions; H or OH if unused. Positions of bridges follow the written chain, without caps; N, C: chain ends. Non-standard residues stand in square brackets, D forms with d. Residues, ends and D or L forms follow the SMILES beside them. *: point of attachment. FITC = O=C1OC2(c3ccc(O)cc3Oc3cc(O)ccc32)c2ccc(NC(=S)*)cc21; X2 = CC(C)C[C@](CCCC=[*:3])(N[*:1])C(=O)[*:2]; X6 = NCCCC[C@](CCCC=[*:3])(N[*:1])C(=O)[*:2]; X1 = CSCC[C@](CCCC=[*:3])(N[*:1])C(=O)[*:2]; X3 = O=C([C@@](CO)(CCCC=[*:3])N[*:1])[*:2]; X5 = C=CCCC[C@@](CC(C)C)(N[*:1])C(=O)[*:2]; X4 = C=CCCC[C@@](CCSC)(N[*:1])C(=O)[*:2]; R5 = C=CCCC[C@@](C)(N)C(=O)O; S5 = C=CCCC[C@](C)(N)C(=O)O; βAla = NCCC(=O)O

The values below come from PMC5672839, “A novel peptide stapling strategy enables the retention of ring-closing amino acid side chains for the Wnt/β-catenin signalling pathway” (Chemical Science, 2017).

A short description of one data set: circular dichroism. To be noted: 10 mM phosphate buffer (captions say PBS); pH 7.4; 25 °C; 50 uM. For orientation: Circular dichroism is the unequal absorption of left and right circularly polarised light.
Another data set addresses α-chymotrypsin (Bos taurus, UniProt P00766). Put plainly: Proteolytic stability towards α-chymotrypsin. To be noted: α-chymotrypsin 5 ng μL^–1 (supplement: 0.5 ng/µL) in 50 mM PBS pH 7.4 with 2 mM CaCl2, peptide 0.1 mM final, room temperature, 1 h, analytical HPLC, duplicate independent experiments.
The next data set can be described thus: in vitro. The note with it: isolated enzyme chymotrypsin, pH 7.4.
The next data set has as its system HEK 293T/17 cells. The experiment in a line: Cell permeability of FITC-labelled peptides by confocal microscopy. The note with it: FITC–β-Ala–peptide 40 μM (supplement: 10 µM), 16 h, washed with PBS twice, fixed, confocal fluorescence microscopy. Format: cell-based. From the text:
(§1) Con = non-specific control. […] Scale bar: 50 μm.
We then assessed the cell permeability of the peptides by conjugating fluorescein isothiocyanate (FITC) to Axin (469–482), WNT-3a and WNT-3c (Fig. 3d). […] To explore the detailed binding mode of WNT-3a against β-catenin, we conducted a Z-dock of the WNT-3a–β-catenin complex to predict structural models of the protein–protein complexes.[27] […] Owing to an introduction of the stapling group, Met-481 is closer to the Trp-338 of β-catenin, and thus forms a stronger interaction with that residue. In addition, a stronger salt bridge between the side chain carboxyl group of Asp-474 coordinated with the amino group of β-catenin Lys-292 and a more efficient hydrogen bond between the side chain of His-476 and β-catenin Asp-299 are constructed because of a closer distance geometrically. It is conceivable that these changes enhanced the conformational stability of WNT-3a in its bound state, thereby contributing to the improved binding activity.
(§2) The CD spectra were obtained with
(§3) The measurement parameters
(§4) background subtraction. The curves were smoothed using standard parameters. In addition,
(§5) Figure S3. CD spectra of all peptides.
(§6) concentration of 50 μM. The percent helicity was calculated based on the [θ] 222 value.

The subject of data set [1] is Wnt/β-catenin dependent transcriptional activity. The experiment in a line: Topflash-luciferase reporter, Wnt3a-induced expression. To be noted: Wnt3a conditioned medium, peptide 40 μM, 12 h; for Wnt3a-induced Topflash reporter expression, comparison in words: HEK293T cells transfected with Topflash-luciferase. Format: cell-based. An excerpt: We next explored the effects of these peptides on Wnt/β-catenin dependent transcriptional activity. The Topflash reporter, in which firefly luciferase is transcriptionally activated by β-catenin, was employed. […] Con = non-specific control. […] Scale bar: 50 μm.

Data set [2] in a line: Circular dichroism (CD) analysis, percent helicity from [θ]222. The note with it: peptide 50 μM in phosphate buffer (10 mM, pH 7.4), 25 °C, 1 mm cuvette, calculated from [θ]222. The format is physicochemical. How it is done: as §1, §2, §3, §4, §5, §6

Protocol for in vitro: (§7) (c) Proteolytic stability of the peptides (Axin (469–482) vs. WNT-3a) in the α-chymotrypsin solution (5 ng μL^–1 in 50 mM PBS buffer, pH = 7.4) at a final concentration of 0.1 mM. […] The percent of residual peptide was monitored by analytical HPLC.
(§8) To test the protease stability of the stapled peptides with the retention of the side chains, we measured their susceptibility towards α-chymotrypsin-mediated degradation at room temperature in pH 7.4 PBS buffer containing 2 mM of CaCl2 as monitored by HPLC. α-Chymotrypsin is a protease that predominantly cleaves at the carboxyl side of positively charged amino acids such as methionine and leucine.
(§9) The Axin(469-482) and WNT-3a were dissolved in PBS buffer solutions (50 mM, pH =
(§10) 7.4) to a final concentration of 1mM, respectively. α-Chymotrypsin was dissolved in PBS
(§11) buffer (50 mM, containing 2 mM of CaCl2, pH = 7.4) to a final concentration of 0.5 ng/µL.
(§12) Then the peptide solutions (100 µL) were incubated with α-Chymotrypsin solution (1 mL) at
(§13) room temperature. 100 µL of digestion mixture was taken at the 0, 5, 10, 20, 30, 40, and 60
Protocol for α-chymotrypsin: as §7, §8, §9, §10, §11, §12, §13

Regarding `C=CCCC[C@@](CCSC)(NC(=O)[C@@H](NC(=O)[C@H](CCCNC(=N)N)NC(=O)[C@](C)(CCCC=C)NC(=O)[C@@H](NC(=O)[C@H](Cc1c[nH]cn1)NC(=O)[C@H](CCC(=O)O)NC(=O)[C@H](CC(=O)O)NC(=O)[C@H](CC(C)C)NC(=O)[C@@H](NC(=O)[C@H](CO)NC(=O)[C@H](CCC(=O)O)NC(=O)[C@@H]1CCCN1C(C)=O)[C@@H](C)CC)C(C)C)C(C)C)C(=O)N[C@@H](CCCCN)C(N)=O` (Ac-PESILDEHV[S5]RV[X4]K-NH2), the helicity in the data set “circular dichroism” came to 49.9%.
Take `CC[C@H](C)[C@H](NC(=O)[C@H](CO)NC(=O)[C@H](CCC(=O)O)NC(=O)[C@@H]1CCCN1C(C)=O)C(=O)N[C@@H](CC(C)C)C(=O)N[C@@H](CC(=O)O)C(=O)N[C@@H](CCC(=O)O)C(=O)N[C@@H](Cc1c[nH]cn1)C(=O)N[C@]1(C)CCCC=CCCC[C@](CCSC)(C(=O)N[C@@H](CCCCN)C(N)=O)NC(=O)[C@H](C(C)C)NC(=O)[C@H](CCCNC(=N)N)NC(=O)[C@H](CCC(N)=O)NC1=O` [WNT-3a] (Ac-PESILDEH[R5]QRV[X1]K-NH2; staple 9-13): the helicity in the data set “circular dichroism” is 42.3%. In addition, the “degradation by α-chymotrypsin” value at α-chymotrypsin was “completely stable and no degradation was observed even after 1 h”.
On to `CC[C@H](C)[C@H](NC(=O)[C@H](CO)NC(=O)[C@H](CCC(=O)O)NC(=O)[C@@H]1CCCN1C(C)=O)C(=O)N[C@]1(C)CCCC=CCCC[C@@](C)(C(=O)N[C@H](C(=O)N[C@@H](CCC(N)=O)C(=O)N[C@@H](CCCNC(=N)N)C(=O)N[C@H](C(=O)N[C@@H](CCSC)C(=O)N[C@@H](CCCCN)C(N)=O)C(C)C)C(C)C)NC(=O)[C@H](CCC(=O)O)NC(=O)[C@H](CC(=O)O)NC1=O` (Ac-PESI[R5]DE[S5]VQRVMK-NH2; staple 5-8), for which the helicity in the data set “circular dichroism” was 36.8%.
As for `CC[C@H](C)[C@@H]1NC(=O)[C@](C)(NC(=O)[C@H](CCC(=O)O)NC(=O)[C@@H]2CCCN2C(C)=O)CCCC=CCCC[C@@](C)(C(=O)N[C@@H](CCC(=O)O)C(=O)N[C@@H](Cc2c[nH]cn2)C(=O)N[C@H](C(=O)N[C@@H](CCC(N)=O)C(=O)N[C@@H](CCCNC(=N)N)C(=O)N[C@H](C(=O)N[C@@H](CCSC)C(=O)N[C@@H](CCCCN)C(N)=O)C(C)C)C(C)C)NC(=O)[C@H](CC(C)C)NC1=O` (Ac-PE[R5]IL[S5]EHVQRVMK-NH2; staple 3-6), in the data set “circular dichroism”, the helicity came to 40%.
In the data set “circular dichroism”, Ac-PESILDEHVQRVMK-NH2 [Axin (469–482)] registered a helicity of 19.6%. The half-life (usually how long it takes for the measured level to halve) at 0.1 mM in “in vitro” is 9 min.
Turning to `CC[C@H](C)[C@H](NC(=O)[C@H](CO)NC(=O)[C@H](CCC(=O)O)NC(=O)[C@@H]1CCCN1C(C)=O)C(=O)N[C@@H](CC(C)C)C(=O)N[C@@H](CC(=O)O)C(=O)N[C@@H](CCC(=O)O)C(=O)N[C@@H](Cc1c[nH]cn1)C(=O)N[C@]1(C)CCCC=CCCC[C@](C)(C(=O)N[C@@H](CCCCN)C(N)=O)NC(=O)[C@H](C(C)C)NC(=O)[C@H](CCCNC(=N)N)NC(=O)[C@H](CCC(N)=O)NC1=O` (Ac-PESILDEH[R5]QRV[R5]K-NH2; staple 9-13), the helicity in “circular dichroism” is 35.4%.
As for `CC[C@H](C)[C@H](NC(=O)[C@H](CO)NC(=O)[C@H](CCC(=O)O)NC(=O)[C@@H]1CCCN1C(=O)CCNC(=S)Nc1ccc2c(c1)C(=O)OC21c2ccc(O)cc2Oc2cc(O)ccc21)C(=O)N[C@@H](CC(C)C)C(=O)N[C@@H](CC(=O)O)C(=O)N[C@@H](CCC(=O)O)C(=O)N[C@@H](Cc1c[nH]cn1)C(=O)N[C@H](C(=O)N[C@@H](CCC(N)=O)C(=O)N[C@@H](CCCNC(=N)N)C(=O)N[C@H](C(=O)N[C@@H](CCSC)C(=O)N[C@@H](CCCCN)C(N)=O)C(C)C)C(C)C` [FITC–β-Ala–Axin (469–482)] ({FITC-βAla}-PESILDEHVQRVMK-NH2), the “cell permeability” value with HEK 293T/17 cells is on record as “also penetrated the cell membrane”.
On to `CC[C@H](C)[C@H](NC(=O)[C@H](CO)NC(=O)[C@H](CCC(=O)O)NC(=O)[C@@H]1CCCN1C(C)=O)C(=O)N[C@@H](CC(C)C)C(=O)N[C@@H](CC(=O)O)C(=O)N[C@@H](CCC(=O)O)C(=O)N[C@@H](Cc1c[nH]cn1)C(=O)N[C@H](C(=O)N[C@@H](CCC(N)=O)C(=O)N[C@@]1(C)CCCC=CCCC[C@](CCCCN)(C(N)=O)NC(=O)[C@H](CCSC)NC(=O)[C@H](C(C)C)NC1=O)C(C)C` [WNT-8a] (Ac-PESILDEHVQ[S5]VM[X6]-NH2; staple 11-14), for which the “Wnt3a-induced Topflash reporter expression, comparison in words” value in data set [1] is listed as “enhanced the Wnt3a-induced reporter expression more effectively than Axin (469–482)”.
In the case of `CC[C@H](C)[C@@H]1NC(=O)[C@](CO)(NC(=O)[C@H](CCC(=O)O)NC(=O)[C@@H]2CCCN2C(C)=O)CCCC=CCCC[C@](C)(C(=O)N[C@@H](Cc2c[nH]cn2)C(=O)N[C@H](C(=O)N[C@@H](CCC(N)=O)C(=O)N[C@@H](CCCNC(=N)N)C(=O)N[C@H](C(=O)N[C@@H](CCSC)C(=O)N[C@@H](CCCCN)C(N)=O)C(C)C)C(C)C)NC(=O)[C@H](CC(=O)O)NC(=O)[C@H](CC(C)C)NC1=O` (Ac-PE[X3]ILD[R5]HVQRVMK-NH2; staple 3-7), the helicity in the data set “circular dichroism” worked out at 24.8%.
Still for that read-out and setting: to `C=CCCC[C@@](CC(C)C)(NC(=O)[C@@H](NC(=O)[C@H](CO)NC(=O)[C@H](CCC(=O)O)NC(=O)[C@@H]1CCCN1C(C)=O)[C@@H](C)CC)C(=O)N[C@@H](CC(=O)O)C(=O)N[C@@H](CCC(=O)O)C(=O)N[C@@H](Cc1c[nH]cn1)C(=O)N[C@](C)(CCCC=C)C(=O)N[C@@H](CCC(N)=O)C(=O)N[C@@H](CCCNC(=N)N)C(=O)N[C@H](C(=O)N[C@@H](CCSC)C(=O)N[C@@H](CCCCN)C(N)=O)C(C)C` (Ac-PESI[X5]DEH[R5]QRVMK-NH2) belongs 21.6%.
Take `CC[C@H](C)[C@H](NC(=O)[C@H](CO)NC(=O)[C@H](CCC(=O)O)NC(=O)[C@@H]1CCCN1C(C)=O)C(=O)N[C@]1(CC(C)C)CCCC=CCCC[C@@](C)(C(=O)N[C@H](C(=O)N[C@@H](CCC(N)=O)C(=O)N[C@@H](CCCNC(=N)N)C(=O)N[C@H](C(=O)N[C@@H](CCSC)C(=O)N[C@@H](CCCCN)C(N)=O)C(C)C)C(C)C)NC(=O)[C@H](CCC(=O)O)NC(=O)[C@H](CC(=O)O)NC1=O` [WNT-6a] (Ac-PESI[X2]DE[S5]VQRVMK-NH2; staple 5-8): in “circular dichroism”, the helicity was 70.9%. Also, the α-Helicity in data set [2] is on record as 70.87%. In addition, the “Wnt3a-induced Topflash reporter expression, comparison in words” value in data set [1] is on record as “enhanced the Wnt3a-induced reporter expression more effectively than Axin (469–482)”. For the same molecule, the “fold enhancement of Wnt3a-induced reporter expression” value in data set [1] (HEK293T cells, Topflash-luciferase, compared with Axin (469–482)) is on record as “three-fold enhancement”.
In turn, `CC[C@H](C)[C@@H]1NC(=O)[C@](CO)(NC(=O)[C@H](CCC(=O)O)NC(=O)[C@@H]2CCCN2C(C)=O)CCCC=CCCC[C@@](C)(C(=O)N[C@@H](CCC(=O)O)C(=O)N[C@@H](Cc2c[nH]cn2)C(=O)N[C@H](C(=O)N[C@@H](CCC(N)=O)C(=O)N[C@@H](CCCNC(=N)N)C(=O)N[C@H](C(=O)N[C@@H](CCSC)C(=O)N[C@@H](CCCCN)C(N)=O)C(C)C)C(C)C)NC(=O)[C@H](CC(C)C)NC1=O` (Ac-PE[X3]IL[S5]EHVQRVMK-NH2; staple 3-6) showed a helicity in “circular dichroism” of 51.3%.
Still for that read-out and setting: to `CC[C@H](C)[C@H](NC(=O)[C@H](CO)NC(=O)[C@H](CCC(=O)O)NC(=O)[C@@H]1CCCN1C(C)=O)C(=O)N[C@@H](CC(C)C)C(=O)N[C@@H](CC(=O)O)C(=O)N[C@@H](CCC(=O)O)C(=O)N[C@@H](Cc1c[nH]cn1)C(=O)N[C@@]1(C)CCCC=CCCC[C@@](C)(C(=O)N[C@@H](CCCCN)C(N)=O)NC(=O)[C@H](C(C)C)NC(=O)[C@H](CCCNC(=N)N)NC(=O)[C@H](CCC(N)=O)NC1=O` (Ac-PESILDEH[S5]QRV[S5]K-NH2; staple 9-13) belongs 64.7%.
